Positions count from the first letter of the chain named.
T1: human TNFR1 on HeLa cells (human, UniProt P19438 30-455)
T1 sequence (looked up): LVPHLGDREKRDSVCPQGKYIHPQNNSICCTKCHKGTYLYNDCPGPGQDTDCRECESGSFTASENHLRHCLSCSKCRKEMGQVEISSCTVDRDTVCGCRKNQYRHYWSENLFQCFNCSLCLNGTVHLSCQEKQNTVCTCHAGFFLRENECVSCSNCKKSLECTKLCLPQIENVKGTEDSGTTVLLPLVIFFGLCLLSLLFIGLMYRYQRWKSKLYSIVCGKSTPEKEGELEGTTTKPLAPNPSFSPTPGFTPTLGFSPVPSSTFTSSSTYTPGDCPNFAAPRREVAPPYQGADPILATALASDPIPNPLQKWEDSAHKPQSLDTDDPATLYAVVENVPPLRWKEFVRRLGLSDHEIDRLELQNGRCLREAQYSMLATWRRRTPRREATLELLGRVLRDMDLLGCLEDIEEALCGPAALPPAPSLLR

T2: TNF receptor 1 Fc fusion protein (R&D Systems) (human, UniProt P19438 30-211, limits assumed)
T2 construct: bought; also called recombinant TNF receptor 1 (p55); TNFR1-Fc; not shown: Fc part of the bought fusion protein; not described
T2 sequence: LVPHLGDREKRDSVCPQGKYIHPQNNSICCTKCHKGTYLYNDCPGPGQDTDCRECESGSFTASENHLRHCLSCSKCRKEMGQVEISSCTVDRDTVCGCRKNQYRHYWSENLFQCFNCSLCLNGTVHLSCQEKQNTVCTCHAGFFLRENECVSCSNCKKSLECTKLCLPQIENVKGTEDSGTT

T3: mouse TNFR1 on L929 cells (mouse, UniProt P25118 30-454)
T3 sequence (looked up): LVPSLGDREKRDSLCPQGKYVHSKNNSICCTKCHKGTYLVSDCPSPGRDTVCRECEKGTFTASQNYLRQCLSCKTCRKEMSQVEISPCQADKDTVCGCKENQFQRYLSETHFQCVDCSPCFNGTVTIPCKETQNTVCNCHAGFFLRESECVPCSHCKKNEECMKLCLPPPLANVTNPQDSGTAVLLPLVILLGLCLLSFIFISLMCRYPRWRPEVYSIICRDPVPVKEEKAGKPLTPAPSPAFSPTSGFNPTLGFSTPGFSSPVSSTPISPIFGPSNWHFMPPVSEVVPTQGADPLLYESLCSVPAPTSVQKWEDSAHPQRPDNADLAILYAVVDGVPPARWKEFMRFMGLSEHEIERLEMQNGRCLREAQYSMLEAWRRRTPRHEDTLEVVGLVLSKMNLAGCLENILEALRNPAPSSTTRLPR

B1: TAR2h-16 (other)
chain: EVQLLESGGGLVQPGGSLRLSCAASGFTFGNYDMQWVRQAPGKGLEWVSSIDGTGGTTYYADSVKGRFTISRDNSKNTLYLQMNSLRAEDTAVYYCAQETNAFDYWGQGTLVTVSS
notes: anti-human TNFR1 dAb
B2: TAR2h-35 (other)
chain: EVQLLESGGGLVQPGGSLRLSCAASGFTFDAYNMFWVRQAPGKGLEWVSAISPSGRETYYADSVKGRFTISRDNSKNTLYLQMNSLRAEDTAVYYCAKRYPDFDYWGQGTLVTVSS
B3: TAR2h-42 (other)
chain: EVQLLESGGGLVQPGGSLRLSCAASGFTFAKYNMYWVRQAPGKGLEWVSAISPKGQHTYYADSVKGRFTISRDNSKNTLYLQMNSLRAEDTAVYYCAEGMGSDAITFDYWGQGTLVTVSS
notes: anti-human TNFR1 dAb
B4: TAR2h-10 (other)
chain: EVQLLESGGGLVQPGGSLRLSCAASGFTFEWYWMGWVRQAPGKGLEWVSAISGSGGSTYYADSVKGRFTISRDNSKNTLYLQMNSLRAEDTAVYYCAKVKLGGGPNFDYWGQGTLVTVSS
notes: anti-human TNFR1 dAb; tied to the entry under the name TAR2-10; also called TAR2-10
B5: TAR2h-10-55 (other)
chain: B4 chain with T28P, G56D, L81Q, T91A, D108G, W110R
B6: TAR2h-10-7 (other)
chain: B4 chain with E89K, W110R
B7: TAR2h-29 (other)
chain: EVQLLESGGGLVQPGGSLRLSCAASGFTFATYNMGWVRQAPGKGLEWVSSIAWLGSETYYADSVKGRFTISRDNSKNTLYLQMNSLRAEDTAVYYCAKHCKAECTGDLFDYWGQGTLVTVSS
notes: anti-human TNFR1 dAb
B8: TAR2h-44 (other)
chain: EVQLLESGGGLVQPGGSLRLSCAASGFTFLQYPMVWVRQAPGKGLEWVSSILAPGGPTYYADSVKGRFTISRDNSKNSLYLQMNSLRAEDTAVYYCAKHPTHTPHPNFDYWGQGTLVTVSS
notes: anti-human TNFR1 dAb
B9: TAR2h-27 (other)
chain: EVQLLESGGGLVQPGGSLRLSCAASGFTFTDYNMAWVRQAPGKGLEWVSFISQEGHHTYYADSVKGRFTISRDNSKNTLYLQMNSLRAEDTAVYYCAKFSTIATLSLFDYWGQGTLVTVSS
notes: anti-human TNFR1 dAb
B10: TAR2h-12 (other)
chain: EVQLLESGGGLVQPGGSLRLSCAASGFTFVAYNMGWVRQAPGKGLEWVSFIDMYGAKTYYADSVKGRFTISRDNSKNTLYLQMNSLRAEDTAVYYCAKLCLMDCSGDIFDYWGQGTLVTVSS
B11: TAR2h-18 (other)
chain: EVQLLESGGGLVQPGGSLRLSCAASGFTFADYNMTWVRQAPGKGLEWVSWIDQEGVFTYYADSVKGRFTISRDNSKNTLYLQMNSLRAEDTAVYYCAKDFSAAVMLRTSFDYWGQGTLVTVSS
B12: TAR2h-67 (other)
chain: EVQLLESGGGLVQPGGSLRLSCAASGFTFEDYPMAWVRQAPGKGLEWVSFIGLKGIHTYYADSVKGRFTISRDNSKNTLYLQMNSLRAEDTAVYYCAKDLNNFDYWGQGTLVTVSS
B13: TAR2h-14 (other)
chain: EVQLLESGGGLVQPGGSLRLSCAASGFTFDQYDMSWVRQAPGKGLEWVSLIDPSGGHTYYADSVKGRFTISRNNSKNTLYLQMNSLRAEDTAVYYCAKPVFSDWPAVEFDYWGQGTLVTVSS
notes: anti-human TNFR1 dAb
B14: TAR2h-41 (other)
chain: EVQLLESGGGLVQPGGSLRLSCAASGFTFDKYQMGWVRQAPGKGLEWVSFIDSNGHHTYYADSVKGRFTISRDNSKNTLYLQMNSLRAEDTAVYYCAELDNLSITPFDYWGQGTLVTVSS
notes: anti-human TNFR1 dAb
B15: TAR2h-13 (other)
chain: EVQLLESGGGLVQPGGSLRLSCAASGFTFPADEMYWVRQAPGKGLEWVSSIGWPGGATYYADSVKGRFTISRDNSKNTLYLQMNSLRAEDTAVYYCAKYGRNFDYWGQGTLVTVSS
B16: TAR2h-34 (other)
chain: EVQLLESGGGLVQPGGSLRLSCAASGFTFPEYGMAWVRQAPGKGLEWVSTISHGGEHTYYADSVKGRFTISRDNSKNTLYLQMNSLRAEDTAVYYCAQHPVSHPKFDYWGQGTLVTVSS
notes: anti-human TNFR1 dAb
B17: TAR2h-17 (other)
chain: EVQLLESGGGLVQPGGSLRLSCAASGFTFGGYQMGWVRQAPGKGLEWVSFIDFTGAHTYYADSVKGRFTISRDNSKNTLYLQMNSLRAEDTAVYYCAKLSDDLTLPERFPFDYWGQGTLVTVSS
notes: anti-human TNFR1 dAb
B18: TAR2h-51 (other)
chain: EVQLLESGGGLVQPGGSLRLSCAASGFTFATYNMSWVRQAPGKGLEWVSAIDAGGMHTYYADSVKGRFTISRDNSKNTLYLQMNSLRAEDTAVYYCAKGTEPFDYWGQGTLVTVSS
notes: anti-human TNFR1 dAb
B19: TAR2h-47 (other)
chain: EVQLLESGGGLVQPGGSLRLSCAASGFTFPVYNMAWVRQAPGKGLEWVSFIAGNGQQTYYADSVKGRFTISRDNSKNTLYLQMNSLRAEDTAVYYCAKFASKVSPMSLTDFDYWGQGTLVTVSS
notes: anti-human TNFR1 dAb
B20: TAR2h-10-1 (other)
chain: B4 chain with S85N, W110R
notes: anti-human TNFR1 dAb
B21: TAR2h-10-3 (other)
chain: B4 chain with S21T
notes: anti-human TNFR1 dAb
B22: TAR2h-10-4 (other)
chain: B4 chain with V37I
notes: anti-human TNFR1 dAb
B23: TAR2h-15 (other)
chain: EVRLLESGGGLVQPGGSLRLSCAASGFTFGKYTMTWVRQAPGKGLEWVSHISDDGNSTYYADSVKGRFTISRDNSKNTLYLQMNSLRAEDTAVYYCAKVPILAPRNLFDYWGQGTLVTVSS
notes: anti-human TNFR1 dAb
B24: TAR2h-22 (other)
chain: EVQLLESGGGLVQPGGSLRLSCAASGFTFGEYNMAWVRQAPGKGQEWVSFISTGGHVTYYADSVKGRFTISRDNSKNTLYLQMNSLRAEDTAVYYCAKFSVRFRSSIFDYWGQGTLVTVSS
notes: anti-human TNFR1 dAb
B25: TAR2m-21 (other)
chain: EVQLLESGGGLVQPGGSLRLSCAASGFTFTRYSMGWVRQAPGKGLEWVSRIDSYGRGTYYADSVKGRFTISRDNSKNTLYLQMNSLRAEDTAVYYCAKISQFGSNAFDYWGQGTLVTVSS
B26: TAR2m-21-43 (other)
chain: B25 chain with V37L, Y60D
B27: TAR2m-21-07 (other)
chain: B25 chain with T30S, Y32C, V37L, Q101K
B28: TAR2m-21-48 (other)
chain: B25 chain with V12I, V37L, Y60D, A61T, K76R
B29: TAR2m-21-23 (other)
VH: B25 chain with T30N, V37L, A61E, S63P, T69S, L115Q

molecular target: T1, human TNFR1 on HeLa cells; experiment: cell-based or functional assay

| Binder | HeLa IL-8 Cell Assay, Activity (IC50) [nM] |
| --- | --- |
| B1 | 200 |
| B2 | 800 |
| B3 | 10 |
| B4 | 50 |
| B5 | 20 |
| B6 | 30 |
| B7 | 300 |
| B8 | 300 |
| B9 | 3000 |
| B10 | 100 |
| B11 | 400 |
| B12 | 300 |
| B13 | 300 |
| B14 | 30 |
| B15 | 300 |

molecular target: T2, TNF receptor 1 Fc fusion protein (R&D …); experiment: receptor binding assay

| Binder | IC50 [nM] |
| --- | --- |
| B1 | 30 |
| B16 | 300 |
| B17 | 100 |
| B18 | 80 |
| B19 | 8 |
| B3 | 15 |
| B4 | 30 |
| B20 | 10 |
| B21 | 11 |
| B22 | 8 |
| B7 | 300 |
| B23 | 5 |
| B8 | 10 |
| B24 | 200 |
| B9 | 30 |
| B13 | 30 |
| B14 | 8 |

molecular target: T3, mouse TNFR1 on L929 cells; experiment: cell-based or functional assay

| Binder | L929 Cell Assay, Activity (IC50) [nM] |
| --- | --- |
| B25 | 400 |
| B26 | 6 |
| B27 | 10 |
| B28 | 6 |
| B29 | 1 |

— patent US20130022605A1 (published 2013)
